Test results published in PMC7969954, “Pol α-primase dependent nuclear localization of the mammalian CST complex” (Communications Biology, 2021).

Target: T1, STN1-TEN1 complex (human, UniProt Q9H668 1-368; Q86WV5 1-123)
T1 construct: STN1, human, full length (flSTN1); TEN1, human, full length (flTEN1); source: E. coli ScarabXpress T7 lac, co-lysed, purified as a complex (Ni-NTA, amylose, HS and HQ)
T1 sequence (looked up) 1: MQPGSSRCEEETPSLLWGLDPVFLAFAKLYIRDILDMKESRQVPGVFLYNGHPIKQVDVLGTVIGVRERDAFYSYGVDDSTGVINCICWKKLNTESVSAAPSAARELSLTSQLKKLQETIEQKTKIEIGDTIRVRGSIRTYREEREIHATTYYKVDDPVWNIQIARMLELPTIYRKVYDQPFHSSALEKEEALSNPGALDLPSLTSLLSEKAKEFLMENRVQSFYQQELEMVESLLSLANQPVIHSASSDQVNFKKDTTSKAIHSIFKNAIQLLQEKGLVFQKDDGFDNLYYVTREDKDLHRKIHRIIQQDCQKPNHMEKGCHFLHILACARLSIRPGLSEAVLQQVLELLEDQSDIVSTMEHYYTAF
T1 sequence (looked up) 2: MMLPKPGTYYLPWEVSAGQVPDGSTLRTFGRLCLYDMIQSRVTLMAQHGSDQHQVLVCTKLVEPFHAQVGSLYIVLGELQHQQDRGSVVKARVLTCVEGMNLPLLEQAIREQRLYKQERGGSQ
Experiment: pull-down; purified STN1-TEN1 complex incubated with purified CTC1 (1002-end) at 4 °C; complex bound to an amylose column and analysed by SDS-PAGE
Conditions: both partners purified

B1: CTC1 (1002-end) (domain or fragment, human, UniProt Q2NKJ3 1002-1217, looked up)
chain: TISIPLPHIYLAELLQGGQSPFQATASCHIVSVFSLQLFWVCAYCTSICRQGKCTRLGSTCPTQTAISQAIIRLLVEDGTAEAVVTCRNHHVAAALGLCPREWASLLDFVQVPGRVVLQFAGPGAQLESSARVDEPMTMFLWTLCTSPSVLRPIVLSFELERKPSKIVPLEPPRLQRFQCGELPFLTHVNPRLRLSCLSIRESEYSSSLGILASSC
notes: CTC1, human, residues 1002-end; also called CTC1 residues 1002-end; source: E. coli ScarabXpress T7 lac, purified (Ni-NTA, HS and HQ)
Does B1 bind?
Result: binds
